# Results taken from doi:10.1101/2021.03.15.435440 (bioRxiv, 2021).
# B1: Ab16 Fab (Fab, V domains shown)
# VH: EVQLQQSGPELVKPGASVKISCKASGYSFNNYYMNWVKQSPEKSLEWIGEINPNSGYTSYNQKFRAKATLTVDKSSTTAYMQLKSLTSEDSAVYYCARYFGNLFAMDFWGQGTSVTVS
# VL: DILMTQSPSSMSVSLGDTVSITCHASQGIGSNIGWLQQKPGKSFKGLIYLGTNLEDGVPSRFSGSGSGADYSLTISSLESEDFADYYCVQYVQFPYTFGGGTKLEIK
# Target: SARS-CoV-2 spike (6P) (SARS-CoV-2, Wuhan-Hu-1 reference, UniProt P0DTC2, stabilised)
# Test: cryo-EM structure
binder,measurement,value
B1,binding result,binds
